{"source": "paper PMC6443348", "about": "“Protein denaturation at the air-water interface and how to prevent it” (eLife, 2019)", "target": "T1, fatty acid synthase (FAS) from Saccharomyces cerevisiae, beta subunit (forms the beta-domes) (Saccharomyces cerevisiae, UniProt P07149 1-2051)", "T1 construct": "Fatty acid synthase subunit beta, Saccharomyces cerevisiae; also called yeast FAS", "T1 sequence (P07149 whole entry)": "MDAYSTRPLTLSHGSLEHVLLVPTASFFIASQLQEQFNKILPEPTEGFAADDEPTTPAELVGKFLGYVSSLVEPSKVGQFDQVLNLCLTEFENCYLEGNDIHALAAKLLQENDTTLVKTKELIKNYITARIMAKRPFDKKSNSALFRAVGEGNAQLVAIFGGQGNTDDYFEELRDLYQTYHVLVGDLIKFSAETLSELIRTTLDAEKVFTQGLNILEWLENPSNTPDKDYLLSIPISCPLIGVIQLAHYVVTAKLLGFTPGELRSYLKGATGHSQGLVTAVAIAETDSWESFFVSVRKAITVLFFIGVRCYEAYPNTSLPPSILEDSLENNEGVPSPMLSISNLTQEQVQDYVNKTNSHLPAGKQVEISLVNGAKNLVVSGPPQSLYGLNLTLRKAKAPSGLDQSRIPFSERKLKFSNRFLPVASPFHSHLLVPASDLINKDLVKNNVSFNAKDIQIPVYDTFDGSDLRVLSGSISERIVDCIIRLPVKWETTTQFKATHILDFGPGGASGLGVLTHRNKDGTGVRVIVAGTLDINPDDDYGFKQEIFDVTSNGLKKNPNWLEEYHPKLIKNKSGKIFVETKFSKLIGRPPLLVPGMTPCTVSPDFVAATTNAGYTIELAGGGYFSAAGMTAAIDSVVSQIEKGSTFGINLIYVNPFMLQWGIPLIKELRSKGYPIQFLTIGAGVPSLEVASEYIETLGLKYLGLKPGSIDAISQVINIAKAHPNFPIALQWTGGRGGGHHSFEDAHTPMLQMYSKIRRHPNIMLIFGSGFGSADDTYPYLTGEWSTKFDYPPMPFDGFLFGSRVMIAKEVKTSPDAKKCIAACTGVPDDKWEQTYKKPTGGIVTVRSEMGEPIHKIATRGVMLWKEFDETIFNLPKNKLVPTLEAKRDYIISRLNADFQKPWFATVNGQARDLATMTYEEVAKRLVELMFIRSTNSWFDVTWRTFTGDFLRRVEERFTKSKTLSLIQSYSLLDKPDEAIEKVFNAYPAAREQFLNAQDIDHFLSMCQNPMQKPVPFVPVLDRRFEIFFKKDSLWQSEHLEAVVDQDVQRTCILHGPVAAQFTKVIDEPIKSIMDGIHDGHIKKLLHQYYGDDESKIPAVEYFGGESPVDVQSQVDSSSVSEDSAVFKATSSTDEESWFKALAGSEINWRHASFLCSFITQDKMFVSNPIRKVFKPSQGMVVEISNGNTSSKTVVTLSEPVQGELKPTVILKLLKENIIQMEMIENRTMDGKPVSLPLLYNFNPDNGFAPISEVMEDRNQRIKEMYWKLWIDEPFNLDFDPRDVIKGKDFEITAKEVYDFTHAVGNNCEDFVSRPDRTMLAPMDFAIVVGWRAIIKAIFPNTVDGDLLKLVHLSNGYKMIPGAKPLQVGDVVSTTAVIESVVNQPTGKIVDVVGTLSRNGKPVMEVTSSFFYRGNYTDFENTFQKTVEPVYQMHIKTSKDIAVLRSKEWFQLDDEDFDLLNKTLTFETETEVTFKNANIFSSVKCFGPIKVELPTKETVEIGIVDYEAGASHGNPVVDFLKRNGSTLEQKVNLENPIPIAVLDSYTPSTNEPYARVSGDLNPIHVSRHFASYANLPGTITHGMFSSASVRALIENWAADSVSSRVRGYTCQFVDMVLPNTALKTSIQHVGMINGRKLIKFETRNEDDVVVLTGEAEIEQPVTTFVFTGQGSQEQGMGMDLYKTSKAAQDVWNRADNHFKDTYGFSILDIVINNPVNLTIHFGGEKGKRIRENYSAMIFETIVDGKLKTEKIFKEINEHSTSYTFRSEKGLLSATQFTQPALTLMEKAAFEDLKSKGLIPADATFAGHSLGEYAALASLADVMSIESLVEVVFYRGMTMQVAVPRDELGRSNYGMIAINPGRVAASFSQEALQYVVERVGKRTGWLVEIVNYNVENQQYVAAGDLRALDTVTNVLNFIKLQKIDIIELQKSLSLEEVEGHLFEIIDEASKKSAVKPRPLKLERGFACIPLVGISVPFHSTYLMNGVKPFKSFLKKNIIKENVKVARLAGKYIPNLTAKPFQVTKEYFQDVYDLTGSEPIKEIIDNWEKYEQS", "assay": "cryo-EM structure; single-particle cryo-EM of purified FAS complex (0.2 mg/ml) on hydrophilized graphene grids; maps at 4.8 Å (C1) and 4.0 Å (D3 symmetry)", "conditions": "both partners purified", "data": [{"binder": "fatty acid synthase (FAS) from Saccharomyces cerevisiae, alpha subunit (forms the alpha wheel) (natural protein, UniProt P19097 1-1887, looked up, Fatty acid synthase subunit alpha, Saccharomyces cerevisiae; also called yeast FAS) MKPEVEQELAHILLTELLAYQFASPVRWIETQDVFLKDFNTERVVEIGPSPTLAGMAQRTLKNKYESYDAALSLHREILCYSKDAKEIYYTPDPSELAAKEEPAKEEAPAPTPAASAPAPAAAAPAPVAAAAPAAAAAEIADEPVKASLLLHVLVAHKLKKSLDSIPMSKTIKDLVGGKSTVQNEILGDLGKEFGTTPEKPEETPLEELAETFQDTFSGALGKQSSSLLSRLISSKMPGGFTITVARKYLQTRWGLPSGRQDGVLLVALSNEPAARLGSEADAKAFLDSMAQKYASIVGVDLSSAASASGAAGAGAAAGAAMIDAGALEEITKDHKVLARQQLQVLARYLKMDLDNGERKFLKEKDTVAELQAQLDYLNAELGEFFVNGVATSFSRKKARTFDSSWNWAKQSLLSLYFEIIHGVLKNVDREVVSEAINIMNRSNDALIKFMEYHISNTDETKGENYQLVKTLGEQLIENCKQVLDVDPVYKDVAKPTGPKTAIDKNGNITYSEEPREKVRKLSQYVQEMALGGPITKESQPTIEEDLTRVYKAISAQADKQDISSSTRVEFEKLYSDLMKFLESSKEIDPSQTTQLAGMDVEDALDKDSTKEVASLPNKSTISKTVSSTIPRETIPFLHLRKKTPAGDWKYDRQLSSLFLDGLEKAAFNGVTFKDKYVLITGAGKGSIGAEVLQGLLQGGAKVVVTTSRFSKQVTDYYQSIYAKYGAKGSTLIVVPFNQGSKQDVEALIEFIYDTEKNGGLGWDLDAIIPFAAIPEQGIELEHIDSKSEFAHRIMLTNILRMMGCVKKQKSARGIETRPAQVILPMSPNHGTFGGDGMYSESKLSLETLFNRWHSESWANQLTVCGAIIGWTRGTGLMSANNIIAEGIEKMGVRTFSQKEMAFNLLGLLTPEVVELCQKSPVMADLNGGLQFVPELKEFTAKLRKELVETSEVRKAVSIETALEHKVVNGNSADAAYAQVEIQPRANIQLDFPELKPYKQVKQIAPAELEGLLDLERVIVVTGFAEVGPWGSARTRWEMEAFGEFSLEGCVEMAWIMGFISYHNGNLKGRPYTGWVDSKTKEPVDDKDVKAKYETSILEHSGIRLIEPELFNGYNPEKKEMIQEVIVEEDLEPFEASKETAEQFKHQHGDKVDIFEIPETGEYSVKLLKGATLYIPKALRFDRLVAGQIPTGWNAKTYGISDDIISQVDPITLFVLVSVVEAFIASGITDPYEMYKYVHVSEVGNCSGSGMGGVSALRGMFKDRFKDEPVQNDILQESFINTMSAWVNMLLISSSGPIKTPVGACATSVESVDIGVETILSGKARICIVGGYDDFQEEGSFEFGNMKATSNTLEEFEHGRTPAEMSRPATTTRNGFMEAQGAGIQIIMQADLALKMGVPIYGIVAMAATATDKIGRSVPAPGKGILTTAREHHSSVKYASPNLNMKYRKRQLVTREAQIKDWVENELEALKLEAEEIPSEDQNEFLLERTREIHNEAESQLRAAQQQWGNDFYKRDPRIAPLRGALATYGLTIDDLGVASFHGTSTKANDKNESATINEMMKHLGRSEGNPVIGVFQKFLTGHPKGAAGAWMMNGALQILNSGIIPGNRNADNVDKILEQFEYVLYPSKTLKTDGVRAVSITSFGFGQKGGQAIVVHPDYLYGAITEDRYNEYVAKVSAREKSAYKFFHNGMIYNKLFVSKEHAPYTDELEEDVYLDPLARVSKDKKSGSLTFNSKNIQSKDSYINANTIETAKMIENMTKEKVSNGGVGVDVELITSINVENDTFIERNFTPQEIEYCSAQPSVQSSFAGTWSAKEAVFKSLGVKSLGGGAALKDIEIVRVNKNAPAVELHGNAKKAAEEAGVTDVKVSISHDDLQAVAVAVSTKK", "values": [{"measurement": "binding result", "result": "binds"}]}]}
